The results in this text go back to US20210180049A1 (CHUGAI SEIYAKU KABUSHIKI KAISHA, priority 2013, published 2021).

Series [1] has as its target T1, human IL-6 receptor (hIL-6R) (Homo sapiens, UniProt P08887).
T1 sequence (P08887 20-357): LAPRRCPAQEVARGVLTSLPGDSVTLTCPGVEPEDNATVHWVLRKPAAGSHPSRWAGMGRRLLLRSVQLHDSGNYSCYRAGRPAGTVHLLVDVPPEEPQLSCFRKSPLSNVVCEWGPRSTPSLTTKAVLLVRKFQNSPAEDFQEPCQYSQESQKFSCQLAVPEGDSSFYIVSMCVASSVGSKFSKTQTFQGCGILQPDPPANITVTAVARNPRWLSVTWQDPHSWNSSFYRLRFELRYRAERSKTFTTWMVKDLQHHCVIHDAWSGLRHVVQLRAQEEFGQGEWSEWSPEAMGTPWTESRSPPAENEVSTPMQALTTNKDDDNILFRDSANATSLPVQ
Nature of the series: SPR (Biacore T200) of 6RNMSC1-2_F02 with hIL-6R with or without kynurenine or ATP. The series is classed as binding. The settings on record: 1 μmol/L hIL-6R. From the text: Biacore T200 (GE Healthcare) was used to analyze the interaction of antigen-antibody reaction between 6RNMSC1-2_F02 and human IL-6 receptor (hIL-6R). An appropriate amount of protein A (Invitrogen) was immobilized onto Sensor chip CM5 (GE Healthcare) by the amine coupling method. The antibody of interest was captured onto the sensor chip, and the antigen hIL-6R was allowed to interact. The running buffer used was 20 mmol/L ACES, 150 mmol/L NaCl, 0.05% (w/v) Tween 20, pH 7.4. The interaction with the antigen hIL-6R was measured at 25° C. hIL-6R was diluted with the running buffer, the running buffer containing 100 μmol/L kynurenine, or, as a control, the running buffer containing 10 mmol/L ATP.
Diluted hIL-6R solutions and the running buffer which is the blank were injected at a flow rate of 10 μL/min for one minute and hIL-6R was allowed to interact with 6RNMSC1-2_F02 captured on the sensor chip. Then, the running buffer was run at a flow rate of 10 μL/min for one minute to observe the dissociation of hIL-6R from the antibody. […] The dissociation constant KD (M) of 6RNMSC1-2_F02 for hIL-6R was calculated from the kinetic parameters, the association rate constant ka (1/Ms) and the dissociation rate constant kd (l/s), calculated based on the sensorgrams obtained by the measurements. Each parameter was calculated using Biacore T200 Evaluation Software (GE Healthcare).

A further series has as its target T2, hIL-6R (Homo sapiens, UniProt P08887).
T2 sequence (P08887 20-357 limits assumed): T1 sequence (P08887 20-357)
Nature of the series: IgG ELISA for hIL-6R binding under conditions of Table 38. To be noted: IgG 2.5 μg/mL. On the procedure: The selected six types of antibodies and the 6RNMSC1-2_F02 antibody were subjected to ELISA under the conditions indicated in Table 38.
First, a StreptaWell 96 microtiter plate (Roche) was coated with 100 μL of TBS containing biotin-labeled hIL-6R at room temperature for one or more hours. After removing biotin-labeled hIL-6R that are not bound to the plate by washing each well of the plate with TBST, the wells were blocked with 250 μL of Blocking Buffer (2% skim milk/TBS) for one or more hours. Blocking Buffer was removed from each well. 100 μL each of the purified IgGs prepared to 2.5 μg/mL using TBS under the conditions described in Table 38 were added to the wells, and the plate was allowed to stand at room temperature for one hour to allow each IgG to bind to biotin-labeled hIL-6R in each well. TBST was prepared to make the final concentrations shown in Table 38, and each well was washed with the prepared TBST. HRP-conjugated anti-human IgG antibody (BIOSOURCE) diluted with TBS containing the same small molecules was added to each well. The plate was incubated for one hour. After washing with TBST prepared to the final concentrations shown in Table 38, the chromogenic reaction of the solution in each well added with TMB single solution (ZYMED) was terminated by adding sulfuric acid. Then, the color development was measured by absorbance at 450 nm.
In general terms: ELISA stands for enzyme-linked immunosorbent assay.

For series [2], the target named is T1, human IL-6 receptor (hIL-6R). Put plainly: IgG ELISA for hIL-6R binding under small molecule conditions of Table 12. To be noted: IgG 2.5 μg/mL. On the procedure:
Three types of obtained antibodies 6RNMSC1-2_F02, 6RNMSC1-3_G02, and GC413 were subjected to ELISA under the nine conditions shown in Table 12. The antigen used was biotin-labeled hIL-6R.
First, a StreptaWell 96 microtiter plate (Roche) was coated with 100 μL of PBS containing biotin-labeled hIL-6R at room temperature for one hour or longer. […] 100 μL of each of the purified IgGs prepared at 2.5 μg/mL using Sample Buffer containing small molecules at the final concentrations shown in Table 12 were added to each well, and the plate was let still at room temperature for one hour to allow each IgG to bind to biotin-labeled hIL-6R present in each well. After washing with Wash Buffer containing small molecules at the final concentrations shown in Table 12, HRP-conjugated anti-human IgG antibody (BIOSOURCE) diluted with Sample Buffer containing the same small molecules was added to each well and the plate was incubated for one hour. After washing with Wash Buffer containing respective small molecules, the chromogenic reaction of TMB single solution (ZYMED) added in each well was terminated by adding sulfuric acid. Then, the color development was measured by absorbance at 450 nm.

Series [3] has the same target. Put plainly: phage ELISA for hIL-6R binding in the presence/absence of small molecule cocktail (SC). To be noted: absorbance at 450 nm. On the procedure: From a single colony of E. coli obtained in (6-1), a phage-containing culture supernatant was collected according to a conventional method (Methods Mol. Biol. (2002) 178, 133-145). […] A StreptaWell 96 microtiter plate (Roche) was coated overnight with 100 μL of TBS containing biotin-labeled hIL-6R. […] After removing 2% skim milk/TBS, purified phages were added to each well of the plate, and the plate was left still at room temperature for one hour to allow antibody-presenting phages to bind to biotin-labeled hIL-6R present in each well in the presence/absence of SC. Each well was washed with TBST or SC/TBST, and HRP-conjugated anti-M13 antibody (Amersham Pharmacia Biotech) diluted with TBS or SC/TBS was added thereto, and the plate was incubated for one hour. After washing with TBST or SC/TBST, the chromogenic reaction of TMB single solution (ZYMED) added in each well was terminated by adding sulfuric acid. Then, the color development was measured by absorbance at 450 nm.

Procedure for Tm measurement by DSC: Measurement by DSC was carried out by a method known to those skilled in the art.
DSC measurement was carried out by a method known to those skilled in the art.

B1: 6RNMSC1-2_F02: antibody binding hIL-6R in the presence of kynurenine; heavy chain SEQ ID NO: 32, light chain SEQ ID NO: 33 (antibody, listed as Homo sapiens, V domains shown)
VH: QVQLVQSGAEVKKPGSSVKVSCKASGGTFSSYAISWVRQAPGQGLEWMGGIIPIFGTANYAQKFQGRVTITADESTSTAYMELSSLRSEDTAVYYCARDAPVVARPRGAFDIWGQGTMVTVSS
VL: DIVMTQTPLSSPVTLGQPASISCRSSQSLVHSDGNTYLSWLQQRPGQPPRLLIHEISNRFSGVPDRFSGSGAGTNFTLKISRVEAEDVGVYYCMQATQFPRTFGQGTKVEIK
Turning to B1, the “hIL-6R binding in the absence of kynurenine” value in series [1] is on record as “not detected”. Further, in series [1] (100 μmol/L kynurenine), the “hIL-6R binding in the presence of kynurenine” value was “bound to hIL-6R”. In addition, the “absorbance under condition 2 or 3 as compared to condition 1 (kynurenine-specific binding to biotin-labeled hIL-6R)” value with hIL-6R is given as “markedly low”. Besides, the “absorbance under condition 9 (no small molecule) compared to condition 8 (cocktail of all small molecules)” value in series [2] (absorbance at 450 nm) was “significantly lower”. Moreover, the “small molecule in whose presence the antibody binds hIL-6R” value in series [2] (conditions 1-9 of Table 12, absorbance at 450 nm) was “binds to the antigen hIL-6R in the presence of kynurenine”. The “binding activity to the antigen hIL-6R in the presence of a small molecule mixture” value in series [3] is listed as “having binding activity”. For the same molecule, the Tm (in general, the temperature at which the thermal transition is half complete) in the series “Tm measurement by DSC” was found to be 82.9 °C.
